Substitutions are numbered along the chain they refer to. One block for each molecule: values may come before it.
Tests used:
[1] = biological target: T1, extracellular domain of human EphA2 (25-534) (Homo sapiens, UniProt P29317); experiment: Epitope binning by bio-layer interferometry (Octet, in-tandem); format: binding
T1 construct: extracellular domain of human EphA2 (25-534) with a C-terminal HIS tag; purchased R&D Systems 3035-A2
Description: Epitope binning was performed using an Octet Red 96E instrument (Sartorius) using the in-tandem format. In this format, antigen is captured on a biosensor tip, a first antibody (or other binding partner) is bound to saturation, and subsequently the ability of a second antibody (or binding partner) known to recognize the antigen is assessed. If substantial binding by the second species is no longer observed, it is supportive that simultaneous binding is sterically hindered (i.e., the second species is “blocked” by pre-saturation of the 1st) and that the two may bind overlapping epitopes. If, however, substantial binding of the second species is observed, despite saturation of the first, it is supportive that the two bind non-overlapping epitopes. Groups of antibodies that block one another can be considered to populate the same epitope bin.
The fourth antibody Fv region (AB-008873) was discovered via Atreca's Immune Repertoire Capture (IRC™). Antibodies were produced with mouse IgG2a constant regions. The natural ligand tested was EphrinA1 fused to Fc (Acro, EF1-H5251). Antigen immobilized on the biosensor was the extracellular domain of human EphA2 (25-534) with a C-terminal HIS tag (R&D Systems, 3035-A2) and captured using Ni-NTA tips (Sartorius, 18-5102). Protein solutions were made in 1× Kinetics buffer (Satorius, 18-1092) supplemented with 2.5 mM Imidazole to reduce non-specific binding. Each pairwise interaction was assessed in both orders of addition, and controls for binding in the absence of antigen or with antigen but without a first binding species included. Binning indicated the five molecules populated only two Bins. The first bin contains molecules AB-008873 and AB-010018 and was interpreted to represent epitopes on the membrane proximal fibronectin domain of EphA2 based on the reported epitope location of DS-8895a (Hasegawa, J. et al., Novel anti-EPHA2 antibody, DS-8895a for cancer treatment. Cancer Biology and Therapy, 17(11), 1158-1167 (2016)). The second bin contains molecules AB-010017. AB-010016, and EphrinA1-Fc and was interpreted to represent epitopes on the ligand binding domain (Peng, L. et al., Structural and functional characterization of an agonistic anti-human EphA2 monoclonal antibody. Journal of Molecular Biology, 413(2), 390-405 (2011); Geddie, M. L. et al., Improving the developability of an anti-EphA2 single-chain variable fragment for nanoparticle targeting. MAbs, 9(1), 58-67 (2017)). FIG. 5, Tables 41-42. Referring to FIG. 5, the FN2 location in the first bin is inferred from domain deletion data reported in Hasegawa et al., 2016, FIG. 1, noting that the reported MMP cleavage sites are (385/395/432/435).

A549 cells = experiment: ADCC (KILR target cells, NK92 CD16 chimera effector cells); format: cell-based, human; details: for EC50 / ADCC - dAct rel. parent, Trial 1 / ADCC - dAct rel. parent, Trial 2: A549 tumor cells; for ADCC - dAct rel. parent, Trial 1: Trial 1, relative to parent antibody; for ADCC - dAct rel. parent, Trial 2: Trial 2, relative to parent antibody
Description: (§1) To detect Antibody-dependent cellular cytotoxicity (ADCC), KILR™-transfected target cells were opsonized with different concentrations of the antibody at room temperature for 20 minutes. Following, NK92 cells carrying a mouse extracellular-human intracellular CD16 chimera were added at a 5:1 ratio of effector to target cells. After a 4 h co-culture at 37° C. and 5% CO2, pre-mixed KILR™ detection reagent was added to each well at equal volume and allowed to incubate for 30 min at room temperature in the dark before reading luminescence on a pate reader. Cytotoxicity was calculated after background (spontaneous release) subtraction and expressed as percent of a maximum lysis control.

PC3-KILR cells = experiment: as above; format: cell-based, human
Description: as §1

T1 sequence (P29317 25-534): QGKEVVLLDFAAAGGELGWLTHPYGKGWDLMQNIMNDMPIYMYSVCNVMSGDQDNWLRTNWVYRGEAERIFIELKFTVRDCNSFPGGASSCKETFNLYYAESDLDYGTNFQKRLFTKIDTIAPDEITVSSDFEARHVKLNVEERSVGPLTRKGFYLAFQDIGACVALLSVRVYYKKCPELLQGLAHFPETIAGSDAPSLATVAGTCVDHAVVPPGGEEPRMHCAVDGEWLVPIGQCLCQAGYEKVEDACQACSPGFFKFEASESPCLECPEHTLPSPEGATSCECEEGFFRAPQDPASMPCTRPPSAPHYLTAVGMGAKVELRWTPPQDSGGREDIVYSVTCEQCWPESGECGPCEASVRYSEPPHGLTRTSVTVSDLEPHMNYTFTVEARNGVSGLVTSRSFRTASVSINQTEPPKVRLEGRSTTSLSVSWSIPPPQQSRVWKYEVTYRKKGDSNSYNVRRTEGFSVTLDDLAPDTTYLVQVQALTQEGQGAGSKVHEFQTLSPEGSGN

epitope bin ([1]; first bin: membrane proximal fibronectin domain, second bin: ligand binding domain): second bin
B1: EphrinA1-Fc: natural ligand EphrinA1 fused to Fc (Acro, EF1-H5251) (protein)
chain: DRHTVFWNSSNPKFRNEDYTIHVQLNDYVDIICPHYEDHSVADAAMEQYILYLVEHEEYQLCQPQSKDQVRWQCNRPSAKHGPEKLSEKFQRFTPFTLGKEFKEGHSYYYISKPIHQHEDRCLRLKVTVSGKITHSPQAHDNPQEKRLAADDPEVRVLHSIGHS
modifications: left off: a dimerising Fc or GST

Octet in tandem binning, Notes/Scoring ([1]; label = Analyte 1, Analyte 2 8873-02, NiNTA tip, Ligand R&D ECD-06): Binding observed
Octet in tandem binning (blocked / binds) ([1]; paired with 8873-2 (column; Bin #1 - FN2)): binds
Octet in tandem binning (blocked / binds) ([1]; paired with 10016-01 (Bin #2 - LBD)): blocked
Octet in tandem binning (blocked / binds) ([1]; paired with 10017-01 (Bin #2 - LBD)): blocked
Octet in tandem binning (blocked / binds) ([1]; paired with 10018-01 (column; Bin #1 - FN2)): binds
Octet in tandem binning (blocked / binds) ([1]; paired with Ephrin-A1 (Bin #2 - LBD)): blocked
B2: Ephrin-A1 (protein)
chain: B1 chain
modifications: left off: a dimerising Fc or GST

EC50 (A549 cells): ~6 pM
B3: AB-010685: VH SEQ ID NO: 638, VL SEQ ID NO: 703; H107TI; L29SY; L92SH relative to AB-010361 (antibody, V domains shown)
VH: QVQLQQWGAGLLKPSETLSLTCAVYGGSFSGYYWSWIRQPPGKGLEWIGEINHRGSINYNNYNPSLKSRVTISVDTSKNQFSLKLSSVTAADTAVYYCAKPLRPHCINGVCYSGDAFDIWGQGTMVTVAS
VL: SYVLTQPPSVSVAPGQTARITCGGNNIGYKNVHWYQQKPGQAPVLVVYDDSDRPSGIPEQFSGSNSGNTATLTISRVEAGDEADYYCQVWDHSSDHVVFGGGTKLTVL
ADCC - dAct rel. parent, Trial 1 (A549 cells): 161.1%
ADCC - dAct rel. parent, Trial 2 (A549 cells): 106.4%
ADCC activity on A549 cells (in words) (A549 cells; comparisons are to AB-008873 or parent): improved ADCC activity
ADCC potency on PC3-KILR cells (in words) (PC3-KILR cells): highly potent
fold improvement in ADCC as compared to AB-010018 (PC3-KILR cells; PC3-KILR cells): 10 fold

EC50 (A549 cells): ~8 pM
B4: AB-010681: VH SEQ ID NO: 634, VL SEQ ID NO: 699; L29SY; L92SH relative to AB-010361 (antibody, V domains shown)
VH: B3 VH with I107T
VL: B3 VL
ADCC - dAct rel. parent, Trial 1 (A549 cells): 152.1%
ADCC - dAct rel. parent, Trial 2 (A549 cells): 104.6%

B5: AB-010687: VH SEQ ID NO: 640, VL SEQ ID NO: 705; L93SE relative to AB-010361 (antibody, V domains shown)
VH: B3 VH with I107T
VL: B3 VL with Y29S, H92S, S93E
ADCC - dAct rel. parent, Trial 1 (A549 cells): 166.8%

B6: AB-010686: VH SEQ ID NO: 639, VL SEQ ID NO: 704; L93SR relative to AB-010361 (antibody, V domains shown)
VH: B3 VH with I107T
VL: B3 VL with Y29S, H92S, S93R
ADCC - dAct rel. parent, Trial 1 (A549 cells): 132.3%

B7: AB-010667: VH SEQ ID NO: 620, VL SEQ ID NO: 685; L29SY; L92SH relative to AB-010357 (antibody, V domains shown)
VH: B3 VH with G31D, I107T
VL: B3 VL
ADCC - dAct rel. parent, Trial 1 (A549 cells): 154.8%
ADCC - dAct rel. parent, Trial 2 (A549 cells): 108.9%

B8: AB-010674: VH SEQ ID NO: 627, VL SEQ ID NO: 692; L29SY; L93SE relative to AB-010357 (antibody, V domains shown)
VH: B3 VH with G31D, I107T
VL: B3 VL with H92S, S93E
ADCC - dAct rel. parent, Trial 1 (A549 cells): 171.2%
ADCC - dAct rel. parent, Trial 2 (A549 cells): 97.2%

B9: AB-010673: VH SEQ ID NO: 626, VL SEQ ID NO: 691; L93SE relative to AB-010357 (antibody, V domains shown)
VH: B3 VH with G31D, I107T
VL: B3 VL with Y29S, H92S, S93E
ADCC - dAct rel. parent, Trial 1 (A549 cells): 166.4%

B10: AB-010669: VH SEQ ID NO: 622, VL SEQ ID NO: 687; L30KM; L92SH relative to AB-010357 (antibody, V domains shown)
VH: B3 VH with G31D, I107T
VL: B3 VL with Y29S, K30M
ADCC - dAct rel. parent, Trial 1 (A549 cells): 177.7%

B11: AB-010683: VH SEQ ID NO: 636, VL SEQ ID NO: 701; L30KM; L92SH relative to AB-010361 (antibody, V domains shown)
VH: B3 VH with I107T
VL: B3 VL with Y29S, K30M
ADCC - dAct rel. parent, Trial 1 (A549 cells): 174.8%
ADCC - dAct rel. parent, Trial 2 (A549 cells): 100.0%

B12: AB-010688: VH SEQ ID NO: 641, VL SEQ ID NO: 706; L29SY; L93SE relative to AB-010361 (antibody, V domains shown)
VH: B3 VH with I107T
VL: B3 VL with H92S, S93E
ADCC - dAct rel. parent, Trial 1 (A549 cells): 129.9%
ADCC - dAct rel. parent, Trial 2 (A549 cells): 108.0%

B13: AB-010672: VH SEQ ID NO: 625, VL SEQ ID NO: 690; L93SR relative to AB-010357 (antibody, V domains shown)
VH: B3 VH with G31D, I107T
VL: B3 VL with Y29S, H92S, S93R
ADCC - dAct rel. parent, Trial 1 (A549 cells): 162.9%

B14: AB-010678: VH SEQ ID NO: 631, VL SEQ ID NO: 696; L23GR; L92SH relative to AB-010361 (antibody, V domains shown)
VH: B3 VH with I107T
VL: B3 VL with G23R, Y29S
ADCC - dAct rel. parent, Trial 1 (A549 cells): 154.2%
ADCC - dAct rel. parent, Trial 2 (A549 cells): 93.9%

B15: AB-010670: VH SEQ ID NO: 623, VL SEQ ID NO: 688; H107TI; L92SH relative to AB-010357 (antibody, V domains shown)
VH: B3 VH with G31D
VL: B3 VL with Y29S
ADCC - dAct rel. parent, Trial 1 (A549 cells): 178.2%

B16: AB-010684: VH SEQ ID NO: 637, VL SEQ ID NO: 702; H107TI; L92SH relative to AB-010361 (antibody, V domains shown)
VH: B3 VH
VL: B3 VL with Y29S
ADCC - dAct rel. parent, Trial 1 (A549 cells): 166.6%
ADCC - dAct rel. parent, Trial 2 (A549 cells): 115.4%

B17: AB-010664: VH SEQ ID NO: 617, VL SEQ ID NO: 682; L23GR; L92SH relative to AB-010357 (antibody, V domains shown)
VH: B3 VH with G31D, I107T
VL: B3 VL with G23R, Y29S
ADCC - dAct rel. parent, Trial 1 (A549 cells): 167.7%

From patent US20250276077A1, “EPHA2 ANTIBODIES” (Immunome, Inc., priority 2022, published 2025)
